Data published in paper PMC3378865 (Nucleic Acids Research, 2012).

Molecular target: the molecule itself
Experiment: cross-linking

B1: OxyR (PA5344) of Pseudomonas aeruginosa PAO1 with a carboxyl-terminal His-tag (natural protein, UniProt Q9HTL4 1-310, looked up)
chain: MTLTELRYIVTLAQEQHFGRAAERCHVSQPTLSVGVKKLEDELGVLIFERSKSAVRLTPVGEGIVAQAQKVLEQAQGIRELAQAGKNQLAAPLKVGAIYTIGPYLFPHLIPQLHRVAPQMPLYIEENFTHILRDKLRTGELDAIIIALPFQEADVLTKPLFDEPFYVLMPADHPWTAKASIDSELLNDKSLLLLGEGHCFRDQVLEACPTVRKGDENKHTTVESSSLETIRHMVASGLGVSVLPFSAVDSHHYAPGVIEVRPFSAPVPFRTVAIAWRASFPRPRAIEVLADSIRLCSVARPQTQEQPQIA
- stoichiometry N: 2
